Details: Rhodopseudomonas palustris (strain ATCC BAA-98 / CGA009); pH 6.5; 25 °C; GdnHCl; CD; MES 20 mM; NaCl 40 mM; whole UniProt chain shown

B1: Cytochrome c' wild type, P00149 (protein)
chain: MKLRIATIAGLVVLGSGFAVAQTDVIAQRKAILKQMGEATKPIAAMLKGEAKFDQAVVQKSLAAIADDSKKLPALFPADSKTGGDTAALPKIWEDKAKFDDLFAKLAAAATAAQGTIKDEASLKANIGGVLGNCKSCHDDFRAKKS
**Q.** Which denaturant m value does the source give for B1 here?
**A.** 5.12 kcal/mol/M

**Q.** What about the “denaturant midpoint (higher = more stable)” value of the same protein?
**A.** 1.71 M

**Q.** And the unfolding free energy?
**A.** 8.77 kcal/mol
